We go through 1 molecule from publication PMC12299175 (Vaccines, 2025).

In assay [1] the target is Myc-tagged S fragment of human coronavirus (HCoV)-OC43 (HCoV-OC43 (GenBank L14643.1), UniProt P36334). Briefly: Western blot. The note with it: one partner purified.
For assay [2], the target named is T1, Myc-tagged S fragment of MERS-CoV (MERS-CoV, isolate of GenBank KT357812.1, UniProt A0A024E0Q9).
T1 construct: source: 293FT cells, transiently transfected, in lysate (RIPA buffer)
Briefly: Western blot. Conditions: one partner purified.

For assay [3], the target named is Myc-tagged S fragment of bat coronavirus (BtCoV)-HKU5 (BtCoV-HKU5 (GenBank AGP04943.1), UniProt S4X425). Description: Western blot. The note with it: one partner purified.
The target in assay [4] is Myc-tagged S fragment of mouse hepatitis virus (MHV) (Mouse hepatitis virus, ATCC VR-764 …, UniProt P11224). Description: Western blot. Conditions: one partner purified.
Myc-tagged S fragment of mouse hepatitis virus (MHV), sequence (P11224 whole entry, looked up, the tested form may be a part): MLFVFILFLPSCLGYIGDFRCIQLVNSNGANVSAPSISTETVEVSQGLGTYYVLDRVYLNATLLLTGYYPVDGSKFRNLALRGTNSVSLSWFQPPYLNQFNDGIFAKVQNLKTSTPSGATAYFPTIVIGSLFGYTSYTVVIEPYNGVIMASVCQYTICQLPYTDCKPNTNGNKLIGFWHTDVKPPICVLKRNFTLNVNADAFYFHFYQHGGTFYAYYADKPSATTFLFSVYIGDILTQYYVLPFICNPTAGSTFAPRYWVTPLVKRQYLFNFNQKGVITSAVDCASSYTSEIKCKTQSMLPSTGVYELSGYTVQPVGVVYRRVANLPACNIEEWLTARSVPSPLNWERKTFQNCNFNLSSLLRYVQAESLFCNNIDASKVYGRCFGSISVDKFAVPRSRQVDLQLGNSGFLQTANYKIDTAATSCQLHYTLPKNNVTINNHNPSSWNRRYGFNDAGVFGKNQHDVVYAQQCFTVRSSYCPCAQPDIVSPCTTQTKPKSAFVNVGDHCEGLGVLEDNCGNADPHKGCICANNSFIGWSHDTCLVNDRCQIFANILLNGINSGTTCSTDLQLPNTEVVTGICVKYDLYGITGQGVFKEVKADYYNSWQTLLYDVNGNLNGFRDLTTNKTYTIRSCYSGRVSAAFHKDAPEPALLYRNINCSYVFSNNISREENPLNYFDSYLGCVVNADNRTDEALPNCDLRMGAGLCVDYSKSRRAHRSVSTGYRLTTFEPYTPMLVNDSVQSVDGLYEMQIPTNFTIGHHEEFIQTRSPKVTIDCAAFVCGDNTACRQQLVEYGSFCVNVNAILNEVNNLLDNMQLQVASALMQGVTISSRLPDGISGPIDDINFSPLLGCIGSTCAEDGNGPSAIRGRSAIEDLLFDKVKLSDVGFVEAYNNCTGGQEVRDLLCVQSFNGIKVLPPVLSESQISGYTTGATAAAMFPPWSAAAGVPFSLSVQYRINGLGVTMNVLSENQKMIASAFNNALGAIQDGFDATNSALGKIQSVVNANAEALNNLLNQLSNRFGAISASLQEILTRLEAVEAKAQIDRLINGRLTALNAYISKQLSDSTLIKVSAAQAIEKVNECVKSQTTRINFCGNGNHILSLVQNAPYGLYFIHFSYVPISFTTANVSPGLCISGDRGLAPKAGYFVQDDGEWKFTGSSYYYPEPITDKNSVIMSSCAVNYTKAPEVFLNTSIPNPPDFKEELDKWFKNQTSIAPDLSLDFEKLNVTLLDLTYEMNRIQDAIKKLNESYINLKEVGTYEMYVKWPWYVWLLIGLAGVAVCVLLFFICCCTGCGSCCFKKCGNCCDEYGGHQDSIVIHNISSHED
Assay [5] has as its target T2, synthetic peptide of stem helix (1141-1161) of SARS-CoV-2 WT S with biotin at C terminus (SARS-CoV-2, UniProt P0DTC2).
T2 construct: source: synthetic peptide
Description: BLI; […] (Gator Bio); antibody at 1 to 100 nM in 100 mM HEPES, 500 mM NaCl, 0.005% Tween20, 0.1% BSA; […]. Conditions: both partners purified.

Myc-tagged S fragment of human coronavirus (HCoV)-OC43, sequence (P36334 whole entry, looked up, the tested form may be a part, one chain of several): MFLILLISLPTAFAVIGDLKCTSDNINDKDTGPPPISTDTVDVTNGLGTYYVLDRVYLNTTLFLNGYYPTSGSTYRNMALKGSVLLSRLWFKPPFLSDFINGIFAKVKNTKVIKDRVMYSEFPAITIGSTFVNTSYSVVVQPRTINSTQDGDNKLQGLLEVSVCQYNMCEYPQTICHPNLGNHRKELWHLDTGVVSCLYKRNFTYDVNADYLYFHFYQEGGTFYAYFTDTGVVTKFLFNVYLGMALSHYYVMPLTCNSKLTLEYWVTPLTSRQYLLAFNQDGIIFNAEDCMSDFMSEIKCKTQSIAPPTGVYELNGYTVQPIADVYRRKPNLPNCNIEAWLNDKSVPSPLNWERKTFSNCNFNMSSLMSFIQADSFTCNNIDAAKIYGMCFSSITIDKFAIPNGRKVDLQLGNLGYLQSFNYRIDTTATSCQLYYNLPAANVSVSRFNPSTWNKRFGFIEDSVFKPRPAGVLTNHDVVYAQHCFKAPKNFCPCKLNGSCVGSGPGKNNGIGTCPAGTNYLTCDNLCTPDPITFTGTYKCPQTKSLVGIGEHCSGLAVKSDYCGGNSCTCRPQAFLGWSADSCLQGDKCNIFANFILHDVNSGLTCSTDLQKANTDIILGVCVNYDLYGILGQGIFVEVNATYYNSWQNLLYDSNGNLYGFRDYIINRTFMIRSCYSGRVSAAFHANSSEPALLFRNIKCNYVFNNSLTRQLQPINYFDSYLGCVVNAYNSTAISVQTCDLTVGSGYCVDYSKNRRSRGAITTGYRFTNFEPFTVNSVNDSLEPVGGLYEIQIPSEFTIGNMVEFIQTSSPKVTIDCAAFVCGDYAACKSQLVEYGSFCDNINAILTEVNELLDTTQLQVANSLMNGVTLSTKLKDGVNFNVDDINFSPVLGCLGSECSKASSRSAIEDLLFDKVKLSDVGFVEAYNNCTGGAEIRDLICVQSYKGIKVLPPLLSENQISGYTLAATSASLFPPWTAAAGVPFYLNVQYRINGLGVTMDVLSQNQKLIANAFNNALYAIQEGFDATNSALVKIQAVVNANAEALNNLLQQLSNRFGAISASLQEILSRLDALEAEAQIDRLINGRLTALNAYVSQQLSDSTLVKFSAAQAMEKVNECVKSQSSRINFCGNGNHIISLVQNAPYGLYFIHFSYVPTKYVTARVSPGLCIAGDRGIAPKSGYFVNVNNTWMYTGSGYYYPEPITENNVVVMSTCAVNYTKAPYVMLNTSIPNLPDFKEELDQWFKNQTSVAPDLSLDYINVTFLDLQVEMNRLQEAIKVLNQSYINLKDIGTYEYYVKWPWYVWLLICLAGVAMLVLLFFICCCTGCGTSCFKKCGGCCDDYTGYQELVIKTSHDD

B1: S2P6 recombinant mAb with human IgG1 constant region (antibody, V domains shown)
VH: EVQLVQSGAEVKKPGASVKVSCKASGYTFTSQYMHWVRQAPGQGLEWIGIINPSGVHTSYAQKFQGRVTLTRDTSTSTLYMELSSLRSEDTAVYYCARGSPKGAFDYWGQGTLVTVSS
VL: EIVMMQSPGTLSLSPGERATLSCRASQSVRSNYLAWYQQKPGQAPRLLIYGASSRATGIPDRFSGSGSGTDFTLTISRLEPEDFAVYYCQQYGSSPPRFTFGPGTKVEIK
notes: also called mAb S2P6
Turning to B1, the binding result in assay [1], in assay [2], in assay [3] and in assay [4] was “binds” in each case. Moreover, the Kd in assay [5] was below 1 pM.
